Assay: label from the status in PepcDB records

Sequence	protein production
MASGNAGDTACLPAMVQAASLTAQQLLQQHWGYPAFRPGQAEIVEAIAQGRDCLIIWPTGGGKSLCFQVPALLRSGLTIVVTPLIALIENQVADLQARGIAAACLHSQMAPRDRKAVLQKLPQLKLLYLAPETLLSTPLWSRLTEPTIAIAGLILDEAHCLLQWGESFRPTYLRLGAIRPALVRLGKPSFPIAAFTATAYPQEVARLSQILQLQQPQRHQRDPYRSNLVLAVKTVWTPRQRQNQLLDFLAKHQGQSGLIYLRSRRDCETWADRLRNRGYRCAAYHAGVSDRERRQIEQAWQTGSLPFAVCSSAFGMGIDKRDVRWVAHVHPPLLLSEYLQEVGRGGRDQQRAQGLTLVSEPSGWLDPSDRDRWQGFQQATQQQWEAAQRQAQQLPASGDLRSLASSNELDLALAYLQRLGQLQWLDPFRYRRRAIPTPRPAPRLDLQPLRQFLYSRDCRWRSLLQSFGSNHPTTWRCGHCDRCQTTG	failed
MASGSMSSYGSGSWTVKQNKAFERALAVYDQDTPDRWHNVARAVGGKTPEEAKRQYDLLVRDIESIENGHVPFPDYKTTTGNSNRGRLRDEEKRMRSMKLQ	failed
MASHDHHHHHHDHEHDHEKSDGGEGKASWVGKDGKVYHSHDGLAPHSHEPIYSPGYFSRRAPPLHDRNFSERAFTVGIGGPVGTGKTALMLALCRFLRDKYSLAAVTNDIFTKEDGEFLVKNGALPEERIRAVETGGCPHAAIREDISINLGPLEELSNLFKADLLLCESGGDNLAANFSRELADYIIYIIDVSAGDKIPRKGGPGITQADLLVINKTDLAAAVGADLSVMERDSLRMRDGGPFVFAQVKHGLGVEEIVNHVMHSWEHATGKKRQ	not failed
MASHQEQSYKAGETRGKAQEKTGEAMGTMGDKTQAAKDKTQETAQSAQQKAHETAQSAKDKTSQAAQTTQERAQESKDKTGSYMSETGEAIKNKAHDAAEYTKETAEAGKEKTSGILGQTGEQVKQMAMGATDAVKHTLGLRTDEGNKEHVSSAPSTTTTTTTRETQRK	failed
MASILFFEKPGCQNNTRQKAWLELSGHTVDAVNILEYAWTKEELSLYLGENPISACFNPAAPEVKTGSMKPELLNKEDALDAMIKKPLLIRRPLLKIGNHYLQGFDTAVLRTIIS	failed
MASKPVDVMVVNFNTAGLLQPMFDALRRADSERLASYLVVDNASRDDSVQRMAQVCPEALLLSNKQNVGFGRANNQLLAHLKGKYALLLNTDAFVAADSLQKTLDYMDAHPECGVLGVRLEGRDGDLQPSCRYFPTPLNVFVGRTGLGRFFPGVKMVDDMNWDHASVRECDWLPGCFYLVRREVLDKVGLFDPRYFLYYEEVDHCKRVKEAGWKVVFYPHTTVVHIGGESSKSVAELEAASRQISSYQIESELLYFRKHHGVAGLALHMLLVTLGDLVLALKALLKRRGWGAIQACWRHCRATWSLLFKTRYASQPTR	failed
MASLLQGFEEVQLVKPVGKTVLTVTDSAIRFNKATAEALGFPAYVKVLINDKTRQIAVTPTTAKAGNAIKFSKPEGKQAASVSVKEATFIEAVKAYLTLPEAPEGEIAYQSVNGTAYPESKTVIFDVANATAGTMKLEHHHHHH	not failed
MASLSELAVFIAVAEQGSFVGAGRVLGVSASAVGKRISRLEVDLGVRLLQRNTRSLALTAEGETVLSRGRSLLDEAESLRVVLERSSRQPGGVLRLSLPPIGGVLMAELAAFRQRYPEVALELDYSERNVDIIEEGFDAAIRVGAGDDGKLRSLALPGFRRLIVAAPDYLVRHGQPRSAAQLAEHQLIHYRSPNSGKLEAWPLVNAELPRALVCNSVHARLDFALQGQGIACLPDISIRRELEDGSLRPLLGSENGEKVVLRLLWPSSRGLSARMEAFLGFMRERSGAAPCENFKVRA	failed
MASLSYPKTTMQIQLGANLKPYHTFGIEQLAAQLVVAESIDDLKALYCSAEWASLPKLIIGKGSNMLFTCHYTGMIVVNRLNGIEHQQDDDYHRLHVAGGEDWPSLVSWCVEQGIGGLENLALIPGCAGSAPIQNIGAYGVEFKDVCDYVEYLCLETGTVKRLTMEECQFGYRDSIFKHQLYQKAVVTAVGLKFAKAWQPIIQYGPLKDLSSDCAIHDVYQRVCATRMEKLPDPAVMGNAGSFFKNPVISQQAFARLQIEHPDVVAYPAEQGVKVAAGWLIDQAGLKGHQIGGAKVHPKQALVIVNTGDASAQDVLMLAADIQQRVFNCYGIELEHEVRFIGESEETNLKQWMSEQA	not failed
MASMDVEEFIGQNRQLADRVEAFRGFSESDKHWKGRREFIFRNMADFPEPQVDHLLALSMVWQNHVFMGCRYSSELLQRVMEMAEGIEVEDAPVFKTRDEIIRQQKQR	failed
MASNMDREMILADFQACTGIENIDEAITLLEQNNWDLVAAINGVIPQENGILQSEYGGETIPGPAFN	failed
MASNRCAVCKILNETCAPMCIYAPHFPSNDASFKVIIQIFGAVNVCNILDNLEFPEQREIAANCLRYAAEARIRNPISGCHDMILQYKNILNNVEQDIESAVNELGTYVGHDQVPKFYDLPMPDDFLMTPVSLDSFIAKIKSLNEVQKNQLMQLPTAADNAPMIMNSIFGKMEDKNLKDGHRADGASTSAGK	failed
MASNRGAGGSLYGGADPYRSREGLSTRNASGSEEIQLRIDPMHSDLDDEILGLHGQIAQEIGSEAKSQRDFLDELQMTLIRAQAGVKNNIRKLNLSIIRSGNNHIMHVVLFALLLFFILYMWSKMFKR	failed
MASQIDQYAVFGNPINHSKSPFIHTLFARQTQQSMIYTAQCVPVDGFTEAAKHFFAQGGRGCNVTVPFKEEAYRFADRLTERARLAGAVNTLKKLDDGEILGDNTDGEGLVQDLLAQQVLLKGATILLIGAGGAARGVLKPLLDQQPASITVTNRTFAKAEQLAELVAAYGEVKAQAFEQLKQSYDVIINSTSASLDGELPAIDPVIFSSRSVCYDMMYGKGYTVFNQWARQHGCAQAIDGLGMLVGQAAESFMLWRGLRPGTKQILRELRKNLEGAL	not failed
MASQTNQTVVDTKKIETENPPKPQVPASSCRKRVKDDNATFFANLKDHMDEFIHASMDEHKTCFKNTMDKIFGSFSKAEAVAEKQIEAKEVVEIHSPLQTAVTK	not failed
MASRGRRPEHGGPPELFYDETEARKYVRNSRMIDIQTRMAGRALELLYLPENKPCYLLDIGCGTGLSGSYLSDEGHYWVGLDISPAMLDEAVDREIEGDLLLGDMGQGIPFKPGTFDGCISISAVQWLCNANKKSENPAKRLYCFFASLFSVLVRGSRAVLQLYPENSEQLELITTQATKAGFSGGMVVDYPNSAKAKKFYLCLFSGPSTFIPEGLSENQDEVEPRESVFTNERFPLRMSRRGMVRKSRAWVLEKKERHRRQGREVRPDTQYTGRKRKPRF	failed
MASSALCFFLMSDLFEPPPDFPARSALRRDCTACGACCSAPDIHALGKPLGVPCRFLGAENTQGACLCGIYLERPAVCRSYAPDWVCGEVAPLPTLEARIRRFLEIYGLDPVTGLEHHHHHH	failed
MASSDVLRQPDKNARPLALSGHVGFDSLPDQLVNKSTSQGFCFNILCIGETGIGKSTLMDTLFNTNFENFESSHFEPKVKLRAQTYDLQESNVRLKLTVVNTVGFGDQMNKQESYQHIVDYIDTQFESYLQEELKIKRSLHNYHDSRIHACLYFIAPSGHSLKSLDLVTMKKLDSKVNIIPVIAKADTISKSELHKFKIKIMSELVSNGVQIYQFPIDDETVAKINTAMNGHLPFAVVGSTEEVNIGNKMVKARQYPWGVVQVENENHCDFVKLREMLICVNMEDLREQTHTRHYELYRRCKLEEMGFKDTDPECKPVSLQQTYEAKRQEFLGELQRREEEMRQTFVQRVKEKEAELKDAERELQGKFEQLKRLHADEKSKLEEKRRSLEEEMSVFSKRKAATELLQAQSFNTSTNNKKDKDRKNSGFM	not failed
MASSEGLASVDPWSFRQNFNIDSWLLSDSFSHDSDILAKALHRSISTSTESSPLSPSSFFDSSTAAVDFSPPQTLSNVSFGSDPEIPAASALGLGKRKRGPGVSGGKQTKRRSRVSNKKSQTTFITADAANFRQMVQQVTGAKFLGSSNSIFAPIVKPEPHRLASRLPPSCGNLDRSSAVPTLDTSSFLSNHHQENIITDLGAPTGSFHHQSSAGTTTANVGGGSSAVELDSYPSFPTLESWKVM	failed
MASSLTKDSVTPGTPGTEKTFFGHPRGLATLFMTEMWERFSYYGMRALLPLYLVAPGGLGLGAGTATAIYSVYLSLVYLLTMPGGWFGDRVWGPRKTVAIAGGVIMLGHLTLALPSSGTFYAGLGLVAIGSGLLKANISTMVGQLYDGPDDPRRDGGFTVFYMGINLGAFAAPLTIGTIGENVNWHLGFALAAVGMGLGVLQFLIGSRHLAPHSSAVPKPLSVEEKTSTLRKAAFWAALAVVFYAIVGFSGHYTLNWILVPLTLLGVIIPVLVLTNIKRDKSLDRAEQSKMSAYIWFFVAAAVFWMIYDQGGSTLSLFADSSADNSVFGWSFPVSWYQSVNPVIIMALAPVFATVWLALNRRGKEPSTVVKFCGGLVLVGASFFLFLAPLGIAEGGHKAAAMWLVAIYFVQTCGELMLSPVGLSVTTKMAPVKYASQMMGVWFLAVTAGDATTGLLSIAGVDLNKTGIVAAEATLAVVAGVAIWMYRKRVKELMGDVR	failed
MASSTLFKLNSQTFKALNPSPPSLSPPNSRIFHLHFSKSLSQQHSKLNHKSTTTRLFAPLCSSLPSPSSSSPPLSKEEAINQAKTCLLSCLIKPLNNPKLASPKLRKLKQPRFRLEIPILDDDSPSSLSQLAFSIFHDLPISRRGSNVKLLFLWPNPSFIDPAVKAFRSDSIHHIAMSPVSDSLKTALRSADVAIFMAPEKSQLEDVKTASEAFSTKPVVMINPRWLFEEEKSFGDGFIGSFEVIYAFTGLEVRGVFSKRKGVIFKCVRDGVVSGERWNVLVEEEEGNGTLKVVSQFNSRPSIEEVELVLYNLMAMNSPITKSAKFLSDLVSNITGKK	failed
MASTDYHVDLTNCDREPIHIPGYIQPHGCLIACDNAMRMVLRHSENCGELLGLEGDLNGRTAEDVLGKKLVHDLRNALTVTGRTTRPAMLPAMETSDGRSFDISLHRYKSTTIIEFEPSGSDAQPLGTARKMVDRIREADSVESLISRTTRLVKATLGYDRVMIYRFQEDGAGKVVSEAKQPELESFLGQYFPASDIPQQARALYLKNTLRIISDASGTRIPVLPAVDVSGEPLDLSYAHLRSVSPIHCEYLRNMGVAASMSISVIVDGALWGLIACHHYSPRVLSMPVRIAAEMFGEFFSMHLQVLKQKRRLDTINHAHAALDRFLRLAAHHANIEELLVDSFQDFADLMPCDGVGLWVGNNWHGHGATPPHDAIPRLARFVASASEGRVWATHALSQAIPEAEIYAGTAAGMLAIPLSQVKSDYLLFFRKEIVQNLNWAGNPEKSYETGPMGDRLTPRKSFAIWKETVRLQAQPWSEADREIAEAARIALVEVAFHHSELMAGERERAEVRQRMLNEELNHRVKNVLAIIKSLVGNPSQEGKTLQEYVTALKGRIQALSFAHDQIIRGEGGGALRDLLEAELSPHRSPETTVKLEGPQITLDSRAFSVMALVLHELATNAAKYGALSQNGGQLHVRWDVNENRDCEISWRETLLTTLPAPSRAGFGTALISRSIPYDLGGRSTIRYLPNGLEAEILLPFRHVSSVSAAFETKTEAETLPQPRRYNREEPLKVLLVEDQMLIAMDVENMLEDNGIKAIETATSSAMAIEKLKTYLPDVAILDINLGSDTSIPVARELHRRGIPFLFATGYADGSMVPDEFGAVPVIRKPYDEDALMAGIGVLVGDTERV	failed
MASVNSPIRTFLKPLLFKLFGKNVYARFQFYAKIKDIDKRLVEEKEMELLPYFLNKDSNSIDVGANYAYYTVGMSKLSKKVFAYEPIPFTYKVCKMLLKHYNCANVDLFAQGVGEKNEIKRFNVPVVDFGGISAGQAHMADRNNELKGKEQHYQFSKNEAYDCTVVSLDAAITDITPISFVKMDIEGAEYFALKGMQQLLLKHKPVILIEINPFFLTGFDIKENDLKNLIASHAYKTYIYSAELKKLQAFECAYFESNYILIPEEKIAQFNAIIE	failed
MASYHVSHDSYQSPGPSPLYQPIIEAPPPPYPPTRTRYQDYYGGYGQPHPPPLRPYRSDHEYYGDGEYVGCFPFLRSCLTTLCCCWFVEQCCFRSRY	not failed
